Measured values published in article PMC3815676 (Journal of immunology (Baltimore, Md. : 1950), 2013).
Where two headings read alike, the source gives them in different places. Blank lines part the entries; values can stand above or below the molecule they belong to.

Experiments:
[1] = tested on: CD4 T cell clone BDC-5.2.9; format: cell-based, NOD mouse; conditions: 24 h
[2] = molecular target: islet amyloid polypeptide (IAPP), peptide KQ10 peptide on I-Ag7 (mouse); assay: IFN-γ ELISA
[3] = molecular target: islet amyloid polypeptide (IAPP), peptide KV17 peptide on I-Ag7 (mouse); assay: IFN-γ ELISA
[4] = molecular target: islet amyloid polypeptide (IAPP), peptide KN14 peptide on I-Ag7 (mouse); assay: IFN-γ ELISA
[5] = molecular target: islet amyloid polypeptide (IAPP), peptide KG38 peptide on I-Ag7 (mouse); assay: IFN-γ ELISA
[6] = molecular target: islet amyloid polypeptide (IAPP), peptide TS17 peptide on I-Ag7 (mouse); assay: IFN-γ ELISA
[7] = molecular target: islet amyloid polypeptide (IAPP), peptide CS19 peptide on I-Ag7 (mouse); assay: IFN-γ ELISA
[8] = molecular target: islet amyloid polypeptide (IAPP), peptide NS18 peptide on I-Ag7 (mouse); assay: IFN-γ ELISA
[9] = molecular target: islet amyloid polypeptide (IAPP), peptide KS20 peptide on I-Ag7 (mouse); assay: IFN-γ ELISA
[10] = T cell clone BDC-5.2.9 (2 × 10^4) with peritoneal exudate cells (2.5 × 10^4) and peptide, IFN-γ in culture supernatants of duplicate wells by ELISA

Molecule: KCNTATCATQRLAN [KN14]
EC50 [1, 10]: > 100000 nM

Molecule: CC(C)C[C@H](NC(=O)[C@H](CC(N)=O)NC(=O)[C@H](CC(N)=O)NC(=O)[C@H](CO)NC(=O)[C@H](CO)NC(=O)[C@H](CCCNC(=N)N)NC(=O)[C@@H](NC(=O)[C@H](CC(C)C)NC(=O)[C@H](Cc1ccccc1)NC(=O)[C@H](CC(N)=O)NC(=O)[C@H](C)NC(=O)[C@H](CC(C)C)NC(=O)[C@H](CCCNC(=N)N)NC(=O)[C@H](CCC(N)=O)NC(=O)[C@@H](NC(=O)[C@H](C)NC(=O)[C@@H]1CSSC[C@H](NC(=O)[C@@H](N)CCCCN)C(=O)N[C@@H](CC(N)=O)C(=O)N[C@@H]([C@@H](C)O)C(=O)N[C@@H](C)C(=O)N[C@@H]([C@@H](C)O)C(=O)N1)[C@@H](C)O)C(C)C)C(=O)NCC(=O)N1CCC[C@H]1C(=O)N[C@H](C(=O)N[C@@H](CC(C)C)C(=O)N1CCC[C@H]1C(=O)N1CCC[C@H]1C(=O)N[C@H](C(=O)N[C@@H](CC(N)=O)C(=O)N[C@H](C(=O)NCC(=O)N[C@@H](CO)C(=O)N[C@@H](CC(N)=O)C(=O)N[C@H](C(=O)N[C@@H](Cc1ccc(O)cc1)C(=O)NCC(=O)O)[C@@H](C)O)C(C)C)[C@@H](C)O)C(C)C [KG38]
EC50 [1]: 0.2 nM

Molecule: BDC-5.2.9
EC50 of peptide [2]: > 100000 nM | EC50 of peptide [3]: 10 nM | EC50 of peptide [4]: > 100000 nM | EC50 of peptide [5]: 0.2 nM | EC50 of peptide [6]: > 100000 nM | EC50 of peptide [7]: 5 nM | EC50 of peptide [8]: > 100000 nM | EC50 of peptide [9]: 0.2 nM

The next lines start with the values.

EC50 [1, 10]: > 100000 nM
Molecule: NTATCATQRLANFLVRSS [NS18]

EC50 [1, 10]: > 100000 nM
Molecule: KCNTATCATQ [KQ10]

EC50 [1, 10]: > 100000 nM
Molecule: TATCATQRLANFLVRSS [TS17]
